These results are taken from the supplement of paper PMC12764529.

± gives the half width of the 95% confidence interval.

The nature of data set [1]: folding stability dG unfold (combined trypsin and chymotrypsin); higher = more stable. The essentials:
(§1)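 Mini-proteins designed to be under 80 residues and free of cysteine were carried in a PA-tagged cDNA display construct and digested with trypsin and with chymotrypsin. Each protease was applied at 11 threefold-diluted concentrations, alongside a no-protease condition, before sequencing. K50 came from Bayesian fitting of the sequencing counts, and unfolding free energy was obtained by comparing it with a sequence-predicted unfolded-state K50 and a shared folded-state K50, for each protease separately or for both together. Designs were retained only if their AlphaFold2 dimer inter-PAE exceeded 15.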

The nature of data set [2]: folding stability dG unfold from trypsin proteolysis; higher = more stable. The essentials:
as §1

Data set [3] can be described thus: folding stability dG unfold from chymotrypsin proteolysis; higher = more stable. The essentials: as §1

For the sequence “SAGGSAGGSAPKPIEITFPAKSLEEAKIAAEEIKRAFEELEDVKVEVEYDPETGTVTVRVYGSAGGSAGGSA [r18_368_TrMRF]”, the “folding stability dG unfold” value in data set [1] amounted to 3.38 ± 0.088 kcal/mol; in data set [2] it was 2.88 ± 0.12 kcal/mol; in data set [3], 3.58 ± 0.07 kcal/mol.
Consider “SAGGSAGGSAPKVEPHPVTFTFENAVVTVTRYRVPDEDGNPLYFTSVSVFFLDKDGKPGFVFPSAGGSAGGS [r20_13_TrMRF]”, for which the “folding stability dG unfold” value in data set [1] worked out at 4.35 ± 0.18 kcal/mol; in data set [2] it was 3.28 ± 0.076 kcal/mol; in data set [3], 4.82 ± 0.069 kcal/mol.
As for “SAGGSAGGSAPLIELRPPEEPLFLPLENLLGRGIPLEELAKLLEKLTGRKVEPVKPGYIRTGSAGGSAGGSA [r18_7_TrMRF]”, the results for the “folding stability dG unfold” value in data set [1], in data set [2] and in data set [3] were -0.161 ± 0.44 kcal/mol, -0.192 ± 0.38 kcal/mol and -0.128 ± 0.25 kcal/mol, respectively.
On the same counts, the results for “SAGGSAGGSAPNLEVEEQRNPDGGMEMEIIRLKNDGLTIFFMEMRPDDKTMTMLMLMPLDASAGGSAGGSAG [r3_126_TrROS]” are 2.48 ± 0.19 kcal/mol, 2.19 ± 0.19 kcal/mol and 2.32 ± 0.13 kcal/mol.
On the same counts, the results for “SAGGSAGGSAPNMDWVMIPIRVPPGEPPKVKITFPDGPTREFDPGRWVWIWFPPGDPMKIEPESAGGSAGGS [r12_553_TrROS]” are 1.54 ± 0.15 kcal/mol, 1.04 ± 0.035 kcal/mol and 1.87 ± 0.13 kcal/mol.
On the same counts, the results for “SAGGSAGGSAPPLKILRPEATVHPDGGVTVVAELEGGYLVVETVTFDPETGTASSSVEIVPLDSAGGSAGGS [r20_15_TrMRF]” are 0.705 ± 0.047 kcal/mol, -0.813 ± 0.12 kcal/mol and 1.03 ± 0.015 kcal/mol.
Take “SAGGSAGGSAPPNDWYVGIMEITININIDADQLPPPLREKFEKNGIKEIRITFVSVFPPDDFSAGGSAGGSA [r18_127_TrROS]”: the figures for the “folding stability dG unfold” value in data set [1], in data set [2] and in data set [3] were 3.14 ± 0.19 kcal/mol, 2.76 ± 0.21 kcal/mol and 3.56 ± 0.11 kcal/mol, respectively.
On the same counts, the results for “SAGGSAGGSAPPYKYVQIELWIPGPIEEIADELQDNFGIRSIDVKRDPENGWVRADIYFQFPSAGGSAGGSA [r18_275_TrROS]” are 2.26 ± 0.14 kcal/mol, 2.07 ± 0.046 kcal/mol and 2.444 ± 0.024 kcal/mol.
On the same counts, the results for “SAGGSAGGSAPRVRYRRRVLVYFPADGSVVPVVLEVSPGPLTLRLDLPAASFPPVRIAPLGSAGGSAGGSAG [r3_454_TrMRF]” are 1.98 ± 0.14 kcal/mol, 1.28 ± 0.066 kcal/mol and 2.58 ± 0.098 kcal/mol.
As to “SAGGSAGGSAPVAYTITITYRDPDGSTRTLTLTFPNLTPEEAKEAAEALPIPASVVSIDITKASAGGSAGGS [r12_886_JUSTAS]”, the “folding stability dG unfold” value came out at 3.29 ± 0.082 kcal/mol in data set [1], 2.24 ± 0.059 kcal/mol in data set [2] and 3.745 ± 0.035 kcal/mol in data set [3].
Taken in the same sequence, the figures for “SAGGSAGGSAPVFLRVEVENPNGERFELTAKLGDPIEIDPSVVDNVKVEVFDPDGNKAEFELNSAGGSAGGS [r12_380_TrMRF]” were 0.506 ± 0.069 kcal/mol, 0.284 ± 0.042 kcal/mol and 0.611 ± 0.057 kcal/mol.
As for “SAGGSAGGSAPVFTSPEEAEKYAREKLLREKPESHPDLVVNVNVTVTTEPDGTITIEIDYKESAGGSAGGSA [r18_440_JUSTAS]”, the “folding stability dG unfold” value was found to be 1.29 ± 0.14 kcal/mol in data set [1], 0.932 ± 0.092 kcal/mol in data set [2] and 1.72 ± 0.086 kcal/mol in data set [3].
Taken in the same sequence, the figures for “SAGGSAGGSAPWRIRIRDPNGKKVEIPWEEVADKFGIPPEEMTLDDILEAFANNIDRIEIVDSAGGSAGGSA [r18_403_TrROS]” were 0.64 ± 0.081 kcal/mol, 0.91 ± 0.067 kcal/mol and 0.361 ± 0.12 kcal/mol.
Taken in the same sequence, the figures for “SAGGSAGGSARITVTPEGGYWRVTIKGPGKTRTFQFPMPANEAEEIVEELQNPPIDIDVEPVSAGGSAGGSA [r18_103_TrROS]” were -0.115 ± 0.14 kcal/mol, -0.328 ± 0.3 kcal/mol and -0.142 ± 0.2 kcal/mol.
On the same counts, the results for “SAGGSAGGSASEIMDEFPNLEIDNVNPDHGMMIIKWPDGWYWRVNVGNGEIEPVSPEDLEDMSAGGSAGGSA [r18_381_TrROS]” are 0.828 ± 0.18 kcal/mol, 0.447 ± 0.037 kcal/mol and 0.983 ± 0.083 kcal/mol.
For the sequence “SAGGSAGGSASLSPEKKVTIKTTVPQPTPPAVTTTLTGQFPSSLTLEELAEKDPNATVSITGSAGGSAGGSA [r18_279_JUSTAS]”, the “folding stability dG unfold” value in data set [1] was 1.04 ± 0.055 kcal/mol; in data set [2] it was 0.221 ± 0.059 kcal/mol; in data set [3] it was 1.36 ± 0.014 kcal/mol.
On the same counts, the results for “SAGGSAGGSASMSPEELAEKYREEYEKKYGIPAVEVKVEVIPEEEKYVITIKLPGSEITVIVSAGGSAGGSA [r18_145_JUSTAS]” are 3.11 ± 0.13 kcal/mol, 3.62 ± 0.26 kcal/mol and 2.74 ± 0.089 kcal/mol.
Taken in the same sequence, the figures for “SAGGSAGGSASMTVRATLPNGEEIEFEADVIKADPGGDSVTVYLILPNGGEIPFEVELEEEESAGGSAGGSA [r18_163_TrMRF]” were 0.574 ± 0.076 kcal/mol, 0.37 ± 0.042 kcal/mol and 0.706 ± 0.19 kcal/mol.
As for “SAGGSAGGSASNVKILGLVSVDPETGLVRLAAYDPETGKVLYFIAPNADGEPLLLEVEENPGSAGGSAGGSA [r18_296_TrMRF]”, the “folding stability dG unfold” value in data set [1] came to 2.21 ± 0.071 kcal/mol; in data set [2], 1.8 ± 0.041 kcal/mol; in data set [3] it was 2.44 ± 0.056 kcal/mol.
Taken in the same sequence, the figures for “SAGGSAGGSASPVPVVEVEITPVKLPGDETAAKITVLLEGDGEPVVVWFDSKDVEKVIEEVLASAGGSAGGS [r20_238_JUSTAS]” were 0.774 ± 0.11 kcal/mol, 0.293 ± 0.12 kcal/mol and 0.847 ± 0.025 kcal/mol.
Consider “SAGGSAGGSASSIVLTKTPGSYVLTEVELSSSTYPPSPPDYGSVVTVTPLEVVEREPGVPLPSAGGSAGGSA [r18_255_JUSTAS]”, for which the “folding stability dG unfold” value is 0.176 ± 0.18 kcal/mol in data set [1], 0.0789 ± 0.12 kcal/mol in data set [2] and 0.263 ± 0.19 kcal/mol in data set [3].
On the same counts, the results for “SAGGSAGGSASSMVKPEKLPNGEKVVVTTETVPDPNSDTPVTVVTTEIYKGDKIVEVKTTLVSAGGSAGGSA [r18_185_JUSTAS]” are 0.439 ± 0.13 kcal/mol, 0.339 ± 0.038 kcal/mol and 0.384 ± 0.12 kcal/mol.
Taken in the same sequence, the figures for “SAGGSAGGSASSMVTVTVSVSPDEGDEEVAKEIAKELGRPDAKVTKITYDPATGTLTITLVDSAGGSAGGSA [r18_481_JUSTAS]” were 1.58 ± 0.11 kcal/mol, 1.61 ± 0.067 kcal/mol and 1.53 ± 0.062 kcal/mol.
Consider “SAGGSAGGSASTITITTPSGEKVKVTLTSLPTPTTLATITVTSTGKTYTIVIAPDGTITLASAGGSAGGSAG [r3_15_JUSTAS]”, for which the “folding stability dG unfold” value in data set [1] stood at 3.54 ± 0.075 kcal/mol; in data set [2], 3.4 ± 0.067 kcal/mol; in data set [3], 3.66 ± 0.026 kcal/mol.
As for “SAGGSAGGSASVVADENKIVVTFPNGKVVELDLSDPKKAKEKLLALKPLDIPPITLELVPPASAGGSAGGSA [r18_68_JUSTAS]”, the “folding stability dG unfold” value in data set [1] was 0.572 ± 0.12 kcal/mol; in data set [2], -0.139 ± 0.071 kcal/mol; in data set [3] it was 0.842 ± 0.041 kcal/mol.
Taken in the same sequence, the figures for “SAGGSAGGSATATVTPHEGAWTVTVTGPDSTETFTFEADEETVREFVELLKAPDVDIDPVPGSAGGSAGGSA [r18_103_TrMRF]” were 1.46 ± 0.086 kcal/mol, 1.79 ± 0.07 kcal/mol and 1.12 ± 0.096 kcal/mol.
Taken in the same sequence, the figures for “SAGGSAGGSATIWIPVSQIEEFLKQMPPDRIKEVKITYDPEDGWIPVKIPGGREIMIWVPKSAGGSAGGSAG [r3_291_TrROS]” were 1.06 ± 0.076 kcal/mol, 1.15 ± 0.029 kcal/mol and 0.83 ± 0.054 kcal/mol.
Taken in the same sequence, the figures for “SAGGSAGGSATLTLELEIEVDGVRFRVRAELRLDEDGRLHLRVEIEVEPLPPPPPLVAEGEELSAGGSAGGS [r20_30_TrROS_Hall]” were 4.05 ± 0.3 kcal/mol, 2.88 ± 0.14 kcal/mol and 4.33 ± 0.23 kcal/mol.
Take “SAGGSAGGSATTTTAPDGSPVTVYPETGVARVYDPATGLWTRLTTRPDGVVEETPLPPGAPLESAGGSAGGS [r12_997_JUSTAS]”: the “folding stability dG unfold” value in data set [1] was 0.307 ± 0.068 kcal/mol; in data set [2] it was -0.687 ± 0.23 kcal/mol; in data set [3] it was 0.6 ± 0.079 kcal/mol.
As to “SAGGSAGGSATVTVERVGNRLLLSFPDGSYYVAELPGEAEVDLASGKITLPANSRVEPVPLERSAGGSAGGS [r20_158_TrMRF]”, the “folding stability dG unfold” value in data set [1] is 0.743 ± 0.029 kcal/mol; in data set [2] it was 0.0598 ± 0.02 kcal/mol; in data set [3], 1 ± 0.015 kcal/mol.
On the same counts, the results for “SAGGSAGGSAVITLKPGETITITATITNADGSTVTITEVVRLPDGRLVVRVTNADGETYEFVLSAGGSAGGS [r12_31_TrROS_Hall]” are 3.44 ± 0.089 kcal/mol, 3.54 ± 0.16 kcal/mol and 3.3 ± 0.12 kcal/mol.
Taken in the same sequence, the figures for “SAGGSAGGSAVKIKIEQLGPGYFHITIEQEMMYPDGKSRKMTMTMMFKVNAPPNDPALRELLSAGGSAGGSA [r18_215_TrROS]” were 2.97 ± 0.13 kcal/mol, 2.69 ± 0.059 kcal/mol and 2.98 ± 0.088 kcal/mol.
As for “SAGGSAGGSAVPLTVLEEEKGEGTVVVITRGPDGKLIVTTYTKDPNSEKWTEKRTVLAPEELLSAGGSAGGS [r20_70_JUSTAS]”, the “folding stability dG unfold” value in data set [1] was determined as 1.98 ± 0.054 kcal/mol; in data set [2], 1.73 ± 0.022 kcal/mol; in data set [3], 2.08 ± 0.067 kcal/mol.
On the same counts, the results for “SAGGSAGGSAVTVDPSSNVVTTTDPATGTSTVTTTPPLPNGTPVLTSTTTTDAAGTPTTTTVTSAGGSAGGS [r12_952_JUSTAS]” are 2.04 ± 0.059 kcal/mol, 2.63 ± 0.12 kcal/mol and 1.38 ± 0.049 kcal/mol.
“SAGGSAGGSAVVSVSPDGYLRLAYYPETGELRELPPDVSVEEFLEAFPDVVVLAAPVAPTPESAGGSAGGSA [r18_53_TrMRF]”: the “folding stability dG unfold” value was determined as 1.41 ± 0.048 kcal/mol in data set [1], 0.961 ± 0.016 kcal/mol in data set [2] and 1.65 ± 0.029 kcal/mol in data set [3].
As to “SAGGSAGGSDDDDAKKAMEQMKPPPIPIKIQVKIEYDPSLGWLKVEIHFFGFGLRITGTIPIDSAGGSAGGS [r20_230_TrROS]”, the “folding stability dG unfold” value in data set [1] was found to be 4.08 ± 0.48 kcal/mol; in data set [2], 3.33 ± 0.16 kcal/mol; in data set [3] it was 4.56 ± 0.31 kcal/mol.
